Assay [1] concerns the target soluble collagen type III (pepsin-digested, non-fibrillar; BD Biosciences) (human) (UniProt P02461). As to the kind of experiment: SPR, saliva injected over immobilized collagen type III for 120 sec at 20 µl/min.
For assay [2], the target named is soluble collagen type I (pepsin-digested, non-fibrillar, triple helical; BD Biosciences) (human) (UniProt P02452). As to the kind of experiment: SPR, saliva injected over immobilized collagen type I for 120 sec at 20 µl/min.
soluble collagen type I (pepsin-digested, non-fibrillar, triple helical; BD Biosciences) (human), sequence (P02452 179-1192 limits assumed, chain 1 of 2): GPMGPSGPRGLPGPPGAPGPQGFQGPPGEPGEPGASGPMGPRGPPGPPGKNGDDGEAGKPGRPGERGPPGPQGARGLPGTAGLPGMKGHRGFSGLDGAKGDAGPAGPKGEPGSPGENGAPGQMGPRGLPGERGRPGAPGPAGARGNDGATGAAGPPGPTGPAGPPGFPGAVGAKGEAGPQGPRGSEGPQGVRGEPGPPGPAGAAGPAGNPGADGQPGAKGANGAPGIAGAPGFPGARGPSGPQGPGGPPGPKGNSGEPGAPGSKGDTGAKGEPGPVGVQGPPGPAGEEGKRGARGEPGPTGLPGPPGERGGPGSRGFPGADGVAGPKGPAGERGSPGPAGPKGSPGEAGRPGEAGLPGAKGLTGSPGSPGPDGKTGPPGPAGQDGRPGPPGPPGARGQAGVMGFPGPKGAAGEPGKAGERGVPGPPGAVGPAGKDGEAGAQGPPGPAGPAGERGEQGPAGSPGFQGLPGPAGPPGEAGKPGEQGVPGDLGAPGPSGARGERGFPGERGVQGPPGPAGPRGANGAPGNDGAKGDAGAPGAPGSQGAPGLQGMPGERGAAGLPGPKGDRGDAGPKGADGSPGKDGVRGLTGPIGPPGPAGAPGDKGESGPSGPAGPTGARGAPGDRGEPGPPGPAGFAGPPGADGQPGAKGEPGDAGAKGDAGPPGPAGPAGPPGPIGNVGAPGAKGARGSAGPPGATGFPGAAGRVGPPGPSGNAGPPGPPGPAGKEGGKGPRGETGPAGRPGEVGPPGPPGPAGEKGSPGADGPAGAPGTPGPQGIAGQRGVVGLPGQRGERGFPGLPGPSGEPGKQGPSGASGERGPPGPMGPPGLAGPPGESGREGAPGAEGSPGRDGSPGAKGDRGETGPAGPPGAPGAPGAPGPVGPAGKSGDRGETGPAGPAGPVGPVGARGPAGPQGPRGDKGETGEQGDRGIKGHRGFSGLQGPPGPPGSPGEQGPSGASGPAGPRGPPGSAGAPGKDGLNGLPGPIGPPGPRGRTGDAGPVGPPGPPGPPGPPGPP
soluble collagen type I (pepsin-digested, non-fibrillar, triple helical; BD Biosciences) (human), sequence (P08123 91-1104 limits assumed, chain 2 of 2, further chain): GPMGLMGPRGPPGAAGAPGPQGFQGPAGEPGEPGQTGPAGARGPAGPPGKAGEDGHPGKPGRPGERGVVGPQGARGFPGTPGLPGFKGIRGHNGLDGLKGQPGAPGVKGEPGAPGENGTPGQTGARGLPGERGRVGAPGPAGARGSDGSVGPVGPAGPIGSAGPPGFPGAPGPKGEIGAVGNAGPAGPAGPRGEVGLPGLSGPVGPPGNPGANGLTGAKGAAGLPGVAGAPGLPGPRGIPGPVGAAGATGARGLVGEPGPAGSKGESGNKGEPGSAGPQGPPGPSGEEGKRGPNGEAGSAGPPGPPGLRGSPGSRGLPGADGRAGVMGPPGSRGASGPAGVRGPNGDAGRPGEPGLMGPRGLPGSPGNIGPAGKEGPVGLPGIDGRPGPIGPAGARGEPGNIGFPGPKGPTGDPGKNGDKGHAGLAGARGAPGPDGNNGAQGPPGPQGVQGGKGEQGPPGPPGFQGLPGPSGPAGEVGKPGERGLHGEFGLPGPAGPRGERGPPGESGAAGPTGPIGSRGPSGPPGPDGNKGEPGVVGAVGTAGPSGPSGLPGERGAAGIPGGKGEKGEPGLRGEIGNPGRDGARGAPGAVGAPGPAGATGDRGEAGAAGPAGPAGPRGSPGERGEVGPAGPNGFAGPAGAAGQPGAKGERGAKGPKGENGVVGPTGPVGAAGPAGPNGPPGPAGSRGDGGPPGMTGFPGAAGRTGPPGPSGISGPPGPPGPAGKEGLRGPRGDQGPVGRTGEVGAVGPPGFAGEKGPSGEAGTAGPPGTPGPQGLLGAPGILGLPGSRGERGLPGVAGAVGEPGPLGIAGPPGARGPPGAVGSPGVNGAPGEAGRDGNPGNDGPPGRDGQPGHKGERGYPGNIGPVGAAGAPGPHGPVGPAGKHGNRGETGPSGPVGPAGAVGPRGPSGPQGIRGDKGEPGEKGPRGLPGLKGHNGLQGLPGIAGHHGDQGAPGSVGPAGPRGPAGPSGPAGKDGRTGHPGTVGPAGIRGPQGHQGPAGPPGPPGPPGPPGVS
Assay [3] has as its target collagen-related peptide (GPO)10, GCO-(GPO)10-GCOG-NH2, cross-linked. The assay can be described thus: SPR, Aegyptin over immobilized cross-linked (GPO)10, two-state model (text value; Table 4 prints 5.101 µM).
Assay [4] has the same target. As to the kind of experiment: SPR, Aegyptin over immobilized cross-linked (GPO)10 peptide, two-state model; Ka1.
Assay [5] shares this target. As to the kind of experiment: SPR, Aegyptin over immobilized cross-linked (GPO)10 peptide, two-state model; Kd1.
Assay [6] has the same target. The assay can be described thus: SPR, Aegyptin over immobilized cross-linked (GPO)10 peptide, two-state model.

soluble collagen type III (pepsin-digested, non-fibrillar; BD Biosciences) (human), sequence (P02461 168-1196): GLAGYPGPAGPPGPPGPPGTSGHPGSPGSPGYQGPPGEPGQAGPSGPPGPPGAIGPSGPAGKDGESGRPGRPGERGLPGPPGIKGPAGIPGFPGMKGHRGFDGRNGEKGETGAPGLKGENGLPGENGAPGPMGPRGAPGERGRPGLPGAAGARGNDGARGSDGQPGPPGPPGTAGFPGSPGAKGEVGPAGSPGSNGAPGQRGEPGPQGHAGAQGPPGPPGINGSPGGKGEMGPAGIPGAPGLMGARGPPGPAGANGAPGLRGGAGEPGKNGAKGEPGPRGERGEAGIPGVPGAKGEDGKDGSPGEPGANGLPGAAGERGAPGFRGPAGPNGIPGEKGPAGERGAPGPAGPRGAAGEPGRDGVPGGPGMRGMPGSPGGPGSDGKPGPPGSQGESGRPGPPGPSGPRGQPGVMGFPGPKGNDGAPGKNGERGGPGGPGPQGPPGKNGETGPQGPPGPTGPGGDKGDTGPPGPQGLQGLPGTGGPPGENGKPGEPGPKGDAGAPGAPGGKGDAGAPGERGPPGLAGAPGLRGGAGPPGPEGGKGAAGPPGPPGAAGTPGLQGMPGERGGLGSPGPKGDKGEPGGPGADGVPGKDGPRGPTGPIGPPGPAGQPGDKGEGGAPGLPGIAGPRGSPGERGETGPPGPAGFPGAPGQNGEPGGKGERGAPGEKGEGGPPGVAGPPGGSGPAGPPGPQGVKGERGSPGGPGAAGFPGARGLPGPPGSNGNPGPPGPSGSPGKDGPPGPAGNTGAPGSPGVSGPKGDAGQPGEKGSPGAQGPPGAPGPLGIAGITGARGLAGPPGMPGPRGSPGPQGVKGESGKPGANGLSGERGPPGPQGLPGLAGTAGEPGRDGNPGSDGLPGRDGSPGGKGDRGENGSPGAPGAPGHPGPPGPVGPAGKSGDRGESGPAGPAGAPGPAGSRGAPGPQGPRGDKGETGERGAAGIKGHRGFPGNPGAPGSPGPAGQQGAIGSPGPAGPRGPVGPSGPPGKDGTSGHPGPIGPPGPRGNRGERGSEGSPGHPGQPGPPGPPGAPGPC

With Ae. aegypti saliva (0.07 µg/ml), the Response (RU) was 348 RU in assay [1] and 556 RU in assay [2].

In turn, “recombinant Aegyptin (from UniProt O01949 20-273)” returned a Kd in assay [3] of 5.01 µM. This substance also gave a kon in assay [4] of 206000 M⁻¹ s⁻¹. This substance also returned a koff in assay [5] of 1.19 s⁻¹. Further, in assay [6], the Kd came out at 5.1 µM, the Kd2 (two-state model) is 0.0289 s⁻¹ and the second Ka of the two-state model amounted to 0.00402 M⁻¹ s⁻¹.

These data come from patent US20130123349A1.
